Here are results for four molecules from patent US20170037124A1 (Regeneron, published 2017).

In test [1] the target is T1, anti-mFc (AMC) Octet biosensor, blank.
T1 construct: Sensor without captured protein, used as blank; also called Blank AMC Sensor
In words: BLI Octet, blank AMC sensor, 100 nM mAb, 25C. The procedure, abridged:
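Antigen-mFc (human or cynomolgus ANGPTL8; hLDLR-mFc as negative control; one blank sensor) captured to ~1.6 nm from 10 μg/mL over 4 min. Sensors dipped 4 min in 100 nM mAb or isotype control at 25° C. Buffer: 10 mM HEPES pH 7.4, 150 mM NaCl, 0.05% Tween-20, 1 mg/ml BSA, shaken at 1000 rpm.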
(In general: In BLI a coated tip is dipped into the sample, and binding shifts an interference pattern.)

Test [2] addresses T2, human ANGPTL8 expressed with C-terminal mouse IgG2a Fc tag (hANGPTL8-mFc; SEQ ID NO: 340) (human).
T2 construct: also called Angiopoietin-like protein 8
T2 chain: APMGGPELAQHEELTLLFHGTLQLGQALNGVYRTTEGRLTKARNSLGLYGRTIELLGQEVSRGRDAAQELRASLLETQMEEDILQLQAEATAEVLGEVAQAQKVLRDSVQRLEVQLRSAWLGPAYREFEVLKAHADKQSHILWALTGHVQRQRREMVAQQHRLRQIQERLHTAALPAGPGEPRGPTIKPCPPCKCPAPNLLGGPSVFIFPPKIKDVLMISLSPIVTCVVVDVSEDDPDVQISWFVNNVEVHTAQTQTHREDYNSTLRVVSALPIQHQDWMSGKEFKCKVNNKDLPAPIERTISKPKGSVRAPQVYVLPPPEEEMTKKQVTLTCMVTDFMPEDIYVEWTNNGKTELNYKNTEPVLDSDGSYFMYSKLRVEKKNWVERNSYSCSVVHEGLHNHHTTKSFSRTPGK
In words: BLI Octet, captured antigen, 100 nM mAb, 25C.

The target of test [3] is T3, negative control protein with the same mFc tag (hLDLR-mFc) (human; mouse, UniProt P01130 22-788, limits assumed).
T3 construct: also called Irrelevant control; not shown: mouse IgG2a Fc tag (same mFc tag as hANGPTL8-mFc)
T3 sequence (P01130 22-788 limits assumed): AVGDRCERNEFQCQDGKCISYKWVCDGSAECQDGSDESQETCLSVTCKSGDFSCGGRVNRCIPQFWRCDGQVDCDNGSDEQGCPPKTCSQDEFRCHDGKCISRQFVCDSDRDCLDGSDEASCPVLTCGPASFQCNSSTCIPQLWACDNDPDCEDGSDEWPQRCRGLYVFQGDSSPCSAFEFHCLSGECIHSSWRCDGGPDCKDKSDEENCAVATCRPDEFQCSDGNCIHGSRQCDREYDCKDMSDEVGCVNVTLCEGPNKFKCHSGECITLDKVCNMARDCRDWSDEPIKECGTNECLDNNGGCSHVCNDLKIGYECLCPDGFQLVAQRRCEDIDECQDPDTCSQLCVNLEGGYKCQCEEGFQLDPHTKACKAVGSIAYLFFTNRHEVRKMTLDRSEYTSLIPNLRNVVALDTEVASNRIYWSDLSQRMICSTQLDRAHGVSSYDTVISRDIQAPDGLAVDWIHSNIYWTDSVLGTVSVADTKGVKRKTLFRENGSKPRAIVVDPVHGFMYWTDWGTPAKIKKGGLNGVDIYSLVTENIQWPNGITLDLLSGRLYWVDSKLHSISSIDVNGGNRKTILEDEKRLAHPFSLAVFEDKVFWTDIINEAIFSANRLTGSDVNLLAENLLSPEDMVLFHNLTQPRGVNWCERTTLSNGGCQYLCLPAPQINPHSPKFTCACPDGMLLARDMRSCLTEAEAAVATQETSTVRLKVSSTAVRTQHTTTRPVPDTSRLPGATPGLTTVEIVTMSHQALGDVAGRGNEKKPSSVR
In words: BLI Octet, captured antigen, 100 nM mAb, 25C.

Test [4] has as its target T4, monkey ANGPTL8 expressed with C-terminal mouse IgG2a Fc tag (MfANGPTL8-mFc; SEQ ID NO: 341) (cynomolgus monkey).
T4 construct: also called cynomolgus monkey ANGPTL8
T4 chain: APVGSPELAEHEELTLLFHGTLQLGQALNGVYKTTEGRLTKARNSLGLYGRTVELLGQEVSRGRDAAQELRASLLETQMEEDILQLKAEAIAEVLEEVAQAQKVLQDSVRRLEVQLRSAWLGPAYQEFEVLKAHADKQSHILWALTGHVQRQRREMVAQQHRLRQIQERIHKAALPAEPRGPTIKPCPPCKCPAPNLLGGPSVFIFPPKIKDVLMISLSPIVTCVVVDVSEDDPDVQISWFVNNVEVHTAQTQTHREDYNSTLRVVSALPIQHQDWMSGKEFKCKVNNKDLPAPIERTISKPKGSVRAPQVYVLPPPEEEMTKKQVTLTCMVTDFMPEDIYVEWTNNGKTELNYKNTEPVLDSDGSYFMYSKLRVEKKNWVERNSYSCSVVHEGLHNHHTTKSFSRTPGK
Nature of the test: BLI Octet, captured antigen, 100 nM mAb, 25C.

The target in test [5] is T5, peptide from the N-terminal coiled-coil region of human ANGPTL4 (hANGPTL4 peptide, SEQ ID NO: 339) (human).
T5 peptide: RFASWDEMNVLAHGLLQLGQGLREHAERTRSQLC
In words: SPR, captured mAb, 500 nM peptide, 25C. (Surface plasmon resonance follows binding to a sensor surface in real time, without labels.)

For test [6], the target named is T6, peptide from the N-terminal coiled-coil region of human ANGPTL3 (hANGPTL3 peptide, SEQ ID NO: 338) (human).
T6 construct: also called hANGPTL3 shift peptide
T6 peptide: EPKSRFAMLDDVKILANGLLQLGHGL
Nature of the test: SPR, captured mAb, 500 nM peptide, 25C.

Test [7] addresses T7, human ANGPTL8 peptide (hANGPTL8 peptide, SEQ ID NO: 337) (human).
T7 construct: also called N-terminal region ANGPTL8 peptide
T7 peptide: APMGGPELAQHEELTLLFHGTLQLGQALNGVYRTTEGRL
In words: SPR, captured mAb, 500 nM peptide, 25C.

Test [8] has as its target T2, human ANGPTL8 expressed with C-terminal …. Nature of the test: BLI Octet, captured antigen, 100 nM mAb, 25C; background 0.03 nm. How it is done:
Binding of ANGPTL8 antibodies to human and monkey ANGPTL8 proteins was investigated using Bio-layer Interferometry with an Octet HTX biosensor platform (ForteBio, A Division of Pall Life Sciences). All experiments were performed at 25° C. in 10 mM HEPES pH 7.4, 150 mM NaCl, 0.05% v/v Surfactant Tween-20, and 1 mg/ml BSA with the reaction multiwell plate agitated at 1000 rpm. Approximately 1.6 nm of human ANGPTL8 produced with a C-terminal mouse IgG2a Fc tag (hANGPTL8-mFc; SEQ ID NO: 340) or cynomolgus monkey ANGPTL8 produced with a C-terminal mouse IgG2a Fc tag (MfANGPTL8-mFc; SEQ ID NO: 341) was captured onto anti-mFc (AMC) Octet biosensors by submerging the sensors into wells containing 10 μg/mL of each protein for 4 minutes. Under the same conditions a negative control protein with the same mFc tag (hLDLR-mFc) was also coupled to the AMC sensor. All four sensors, […] and one blank, were then submerged into wells containing 100 nM of different ANGPTL8 monoclonal antibodies or an isotype control for 4 minutes.

For test [9] the target is unchanged. In words: BLI Octet, captured antigen, 100 nM mAb, 25C.
Test [10] addresses T8, linear peptide 1APMGGPELAQHEELT15 (SEQ ID NO: 348) (human).
T8 construct: Synthesized on a solid support (Pepscan array)
T8 peptide: APMGGPELAQHEELT
In words: Pepscan peptide array ELISA, 1 µg/ml antibody. (An ELISA detects its analyte on a solid surface through an enzyme-linked reagent.)

The target in test [11] is T2, human ANGPTL8 expressed with C-terminal …. Nature of the test: SPR MASS-1, antigen-mFc captured, mAb injected, 25C. The procedure: (§1) All binding studies were performed in 10 mM HEPES pH 7.4, 150 mM NaCl, 3 mM EDTA, and 0.05% v/v Surfactant Tween-20 (HBS-ET running buffer) at 25° C. The HCA sensor surface was first derivatized by amine coupling goat anti-mouse IgG2a polyclonal antibody (Southern Biotech, #1080-01) onto which was then captured approximately 30 RU ([…]) of human ANGPTL8 expressed with C-terminal mouse IgG2a Fc tag (hANGPTL8-mFc; SEQ ID NO: 340) or monkey ANGPTL8 expressed with C-terminal mouse IgG2a Fc tag (MfANGPTL8-mFc; SEQ ID NO: 341).
(§2) Kinetic association (kₐ) and dissociation (kd) rate constants were determined by fitting the real-time binding sensorgrams to a 1:1 binding model with mass transport limitation using Scrubber 2.0c curve-fitting software. Binding dissociation equilibrium constants (KD) and dissociative half-lives (t½) were calculated from the kinetic rate constants as: […]

Test [12] has as its target T4, monkey ANGPTL8 expressed with …. The test is described as above. The procedure:
as §1, §2

In test [13] the target is T2, human ANGPTL8 expressed with C-terminal …. Nature of the test: SPR MASS-1, antigen-mFc captured, mAb injected, 25C; no dissociation seen, kd fixed at the detection limit. How it is done: as §1, §2
(§3) To obtain an estimate of the binding affinity the dissociation rate constant, kd, was fixed at the upper detection limit under the experimental conditions, 1.0E-05 1/s.

In test [14] the target is T4, monkey ANGPTL8 expressed with …. Described as above. The procedure:
as §1, §2, §3

B1: H4H15330P (antibody, human IgG4, V domains shown)
VH: QVQLVESGGGLVKPGGSLRLSCAASGFTFSDYYMSWIRQAPGKGLEWISHISGSGRTTHYADSMKGRFTISRDNAKNSLYLQMNSLRAEDTAVYYCVREGGFNWNYEGTFDIWGQGTMVTVSS
VL: DIVMTQTPLSSPVTLGQPASISCRSSQSLLHSDQNTYLSWLHQRPGQPPRLLIYKISNRFSGVPDRFSGSGAGTDFTLKISRVEAEDVGIYYCMQGTQFPLTFGGGTKVEIK
notes: H4H prefix: human IgG4 Fc
Regarding B1, the “mAb Binding Response (nm)” value amounted to 0.01 nm in [1], 0.34 nm in test [2], 0.02 nm in test [3] and 0.39 nm in test [4]. The “500 nM hAngPTL4 peptide Bound (RU)” value in [5] is 0 RU. Also, the binding result in test [5] and in test [7] was “no binding (tested: <9 RU at 500 nM peptide)” in each case. Besides, the “500 nM hANGPTL3 peptide Bound (RU)” value in test [6] is -1 RU. For the same molecule, in test [7], the “500 nM hANGPTL8 peptide Bound (RU)” value turned out to be 0 RU. Besides, in [8], the “binding signal, fold above background” value is at least 10 fold.

B2: H4H15316P (antibody, human IgG4, V domains shown)
VH: EVQLVESGGGLVQPGRSLRLSCAASGFIFDDYDMHWVRQAPGKGLEWVSGISWNSGSKGYADSVKGRFTISRDNAKNSLYLQMNSLRAEDTALYYCTKGPWDYFDYWGQGTLVTVSS
VL: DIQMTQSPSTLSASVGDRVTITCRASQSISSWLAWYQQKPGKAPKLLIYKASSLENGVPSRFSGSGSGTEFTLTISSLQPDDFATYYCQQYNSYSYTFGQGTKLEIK
notes: H4H prefix: human IgG4 Fc
As for B2, the binding result in [9] is on record as “no binding (tested: 100 nM mAb; background 0.03 nm)”; in test [5] it was “no binding (tested: <9 RU at 500 nM peptide)”; in [6] it was “no binding (tested: <9 RU at 500 nM peptide)”; in test [7], “no binding (tested: <9 RU at 500 nM peptide)”. The “mAb Binding Response (nm)” value in test [1] worked out at 0.02 nm; in [2], 0.03 nm; in test [4], 0.02 nm. For the same molecule, the “500 nM hAngPTL4 peptide Bound (RU)” value in test [5] turned out to be 0 RU. Further, the “500 nM hANGPTL3 peptide Bound (RU)” value in test [6] was 0 RU. Besides, the “500 nM hANGPTL8 peptide Bound (RU)” value in [7] amounted to 0 RU.

B3: H4H15367P2 (antibody, human IgG4, V domains shown)
VH: QVQLVESGGGVVQPGRSVRLSCGASGFTFKYYGMHWVRQAPGKGLEWVAVIWYDGRNKFYADSVKGRFTISRDNSKNTVNLEMNNLRAEDTAIYYCARDGGTADGDYFDYWGQGTLVTVSS
VL: not shown
notes: H4H prefix: human IgG4 Fc
With B3, the values for the binding result in [10], in test [5] and in test [6] were “binds”, “no binding (tested: <9 RU at 500 nM peptide)” and “no binding (tested: <9 RU at 500 nM peptide)”, respectively. In addition, the “mAb Binding Response (nm)” value in test [1] was determined as 0 nm; in test [2], 0.32 nm; in test [4], 0.33 nm. In test [5], the “500 nM hAngPTL4 peptide Bound (RU)” value came out at 0 RU. In [6], the “500 nM hANGPTL3 peptide Bound (RU)” value was 0 RU. Also, the “500 nM hANGPTL8 peptide Bound (RU)” value in test [7] turned out to be 43 RU. For the same molecule, the koff in [7] came to 9.82e-05 s⁻¹. Moreover, in test [7], the t½ was 1.97 h. Besides, the “binding signal, fold above background” value in test [8] is at least 10 fold.

B4: H4H15341P (antibody, human IgG4, V domains shown)
VH: EVQLVESGGGLVQPGGSLRLSCAASGFTFNNHEMNWVRQAPGKGLEWVSYISSSGNTVTYADFLKGRFTISRDNAKNSLFLQMNSLRDEDTAVYYCARDHLSGTSPLSYWGQGTLVTVSS
VL: DIQMTQSPSSLSASVGDRVTITCQASQDINNYLNWFQQKPGKAPKLLIFDASNLETGVPSRFSGSGSGTDFTFTISSLQPEDIATYFCQQYENLPYTFGQGTKLEIK
notes: H4H prefix: human IgG4 Fc
With B4, the Kd in test [11] was at most 0.117 nM; in test [12], at most 0.086 nM. Further, the kon in test [11] came to 85000 M⁻¹ s⁻¹; in test [12], 116000 M⁻¹ s⁻¹. The t½ in [11] and in test [12] was at least 19.2 h in each case. The “mAb Binding Response (nm)” value in [1] is 0.03 nm; in test [2], 0.12 nm; in test [4], 0.1 nm. For the same molecule, the “500 nM hAngPTL4 peptide Bound (RU)” value in test [5] was 0 RU. In addition, the binding result in test [5], in test [6] and in [7] was “no binding (tested: <9 RU at 500 nM peptide)” throughout. In test [6], the “500 nM hANGPTL3 peptide Bound (RU)” value stood at 0 RU. Also, in [7], the “500 nM hANGPTL8 peptide Bound (RU)” value turned out to be 0 RU. The koff in test [13] and in test [14] was at most 1e-05 s⁻¹ in each case.

Broadly, the koff is the first-order rate constant of dissociation. The term t½ denotes the time in which the quantity being followed falls by half. Broadly, the Kd is the constant that tells how readily two partners part at equilibrium. What is called kon is the rate constant with which the complex forms.
